Molecular target: GAL4-HSF2N96C238 (HSF2 deletion mutant fused with the yeast GAL4-BD derived from pM) (yeast; human) (UniProt P04386)
Assay: cell-based or functional assay

Q: “VP16-HSF2BP (HSF2BP fused with the VP16 transcriptional activation domain derived from pVP16) (from UniProt O75031 1-334)” was tested. Which luciferase reporter activity in two-hybrid assay in K562 cells (induction fold against control VP16) did it give?
A: The luciferase reporter activity in two-hybrid assay in K562 cells (induction fold against control VP16) was 11 fold.

— patent US6485936
